The text below walks through data of the supplement of paper PMC9112550, “Optimization of the antimicrobial peptide Bac7 by deep mutational scanning” (BMC Biology, 2022).

The subject of the series is Escherichia coli TOP10. In words: shrunken log2 fold change of peptide-encoding DNA abundance (4.5 h post-induction vs induction); higher = less antimicrobial activity (less host growth inhibition). Conditions: time post-induction: 4.5 h; library: site-saturation at positions 5, 18, 19, 20.
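Note: peptides expressed intracellularly from a pBAD plasmid library in pooled LB shake-flask culture, induced with 0.3% L-arabinose, DNA abundance read by NGS, three biological replicates, DESeq2 with apeglm shrinkage.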

For RRIRARPPRLPRPRPRPATDPRP, the “shrunken log2 fold change” value was 1.53.

For the sequence RRIRTRPPRLPRPRPRPCKNPRP, the “shrunken log2 fold change” value is -0.33.

Turning to RRIRDRPPRLPRPRPRPRNAPRP, the “shrunken log2 fold change” value is -0.145.

RRIRERPPRLPRPRPRPNKSPRP: the “shrunken log2 fold change” value was -0.369.

With RRIRPRPPRLPRPRPRPLKWPRP, the “shrunken log2 fold change” value turned out to be 0.398.

For the sequence RRIRVRPPRLPRPRPRPGANPRP, the “shrunken log2 fold change” value was 0.222.

RRIRPRPPRLPRPRPRPRDYPRP: the “shrunken log2 fold change” value came out at 0.144.

For the sequence RRIRPRPPRLPRPRPRPDRWPRP, the “shrunken log2 fold change” value was determined as 0.219.

Take RRIRTRPPRLPRPRPRPRSWPRP: the “shrunken log2 fold change” value worked out at 0.532.

For RRIRHRPPRLPRPRPRPFDVPRP, the “shrunken log2 fold change” value is -0.168.

On to RRIRVRPPRLPRPRPRPENQPRP, for which the “shrunken log2 fold change” value was -0.008.

On to RRIRPRPPRLPRPRPRPLINPRP, for which the “shrunken log2 fold change” value was -0.298.

On to RRIRDRPPRLPRPRPRPLKHPRP, for which the “shrunken log2 fold change” value was -0.927.

Turning to RRIRIRPPRLPRPRPRPNLCPRP, the “shrunken log2 fold change” value was -0.0543.

Consider RRIRSRPPRLPRPRPRPCYMPRP, for which the “shrunken log2 fold change” value was -0.562.

As for RRIRWRPPRLPRPRPRPFQEPRP, the “shrunken log2 fold change” value is -0.0827.

As to RRIRGRPPRLPRPRPRPQNNPRP, the “shrunken log2 fold change” value was -0.0456.

On to RRIRDRPPRLPRPRPRPIHDPRP, for which the “shrunken log2 fold change” value was -0.58.

On to RRIRHRPPRLPRPRPRPNHQPRP, for which the “shrunken log2 fold change” value is -1.24.

For the sequence RRIRFRPPRLPRPRPRPMCIPRP, the “shrunken log2 fold change” value was -0.075.

For RRIRYRPPRLPRPRPRPPFSPRP, the “shrunken log2 fold change” value is -0.285.

RRIRTRPPRLPRPRPRPVLAPRP: the “shrunken log2 fold change” value worked out at 0.479.

Consider RRIRQRPPRLPRPRPRPEDNPRP, for which the “shrunken log2 fold change” value was -0.0442.

For RRIRFRPPRLPRPRPRPRKGPRP, the “shrunken log2 fold change” value was determined as 0.447.

As to RRIRCRPPRLPRPRPRPPAPPRP, the “shrunken log2 fold change” value stood at 1.11.

For the sequence RRIRERPPRLPRPRPRPRWTPRP, the “shrunken log2 fold change” value came to 0.0925.

RRIRHRPPRLPRPRPRPEACPRP: the “shrunken log2 fold change” value was -0.0115.

Take RRIRMRPPRLPRPRPRPTQPPRP: the “shrunken log2 fold change” value is 0.176.

For RRIRRRPPRLPRPRPRPGTMPRP, the “shrunken log2 fold change” value was determined as 0.186.

Take RRIRGRPPRLPRPRPRPTCWPRP: the “shrunken log2 fold change” value was 0.764.

As to RRIRMRPPRLPRPRPRPQYMPRP, the “shrunken log2 fold change” value is -0.969.

Turning to RRIRIRPPRLPRPRPRPGFIPRP, the “shrunken log2 fold change” value is -0.391.

In the case of RRIRMRPPRLPRPRPRPAICPRP, the “shrunken log2 fold change” value came out at 0.171.

As for RRIRMRPPRLPRPRPRPQQTPRP, the “shrunken log2 fold change” value was 1.14.

For RRIRERPPRLPRPRPRPITWPRP, the “shrunken log2 fold change” value was 0.0224.

RRIRVRPPRLPRPRPRPFSEPRP: the “shrunken log2 fold change” value was -0.237.

For the sequence RRIRARPPRLPRPRPRPFIHPRP, the “shrunken log2 fold change” value is -0.45.

With RRIRWRPPRLPRPRPRPQAEPRP, the “shrunken log2 fold change” value stood at 0.0113.

As to RRIRARPPRLPRPRPRPEDQPRP, the “shrunken log2 fold change” value stood at 0.0203.

On to RRIRHRPPRLPRPRPRPRNGPRP, for which the “shrunken log2 fold change” value was -0.0288.

In the case of RRIRYRPPRLPRPRPRPDSKPRP, the “shrunken log2 fold change” value is -0.352.

As for RRIRFRPPRLPRPRPRPMDTPRP, the “shrunken log2 fold change” value is -0.165.

For RRIRHRPPRLPRPRPRPWCTPRP, the “shrunken log2 fold change” value is -0.11.

For RRIRLRPPRLPRPRPRPPPEPRP, the “shrunken log2 fold change” value turned out to be 1.35.

RRIRLRPPRLPRPRPRPSQHPRP: the “shrunken log2 fold change” value is -0.169.

In the case of RRIRQRPPRLPRPRPRPFHSPRP, the “shrunken log2 fold change” value was -0.00884.

RRIRRRPPRLPRPRPRPQSRPRP: the “shrunken log2 fold change” value worked out at 0.00841.

Regarding RRIRERPPRLPRPRPRPGFKPRP, the “shrunken log2 fold change” value was -0.324.

As for RRIRPRPPRLPRPRPRPVIIPRP, the “shrunken log2 fold change” value is -0.286.

Take RRIRPRPPRLPRPRPRPFIKPRP: the “shrunken log2 fold change” value was -0.926.

In the case of RRIRTRPPRLPRPRPRPCQEPRP, the “shrunken log2 fold change” value was -0.0218.

With RRIRKRPPRLPRPRPRPHSKPRP, the “shrunken log2 fold change” value turned out to be 0.0726.

With RRIRFRPPRLPRPRPRPAEFPRP, the “shrunken log2 fold change” value is 1.14.

RRIRRRPPRLPRPRPRPDSHPRP: the “shrunken log2 fold change” value was -0.00863.

In the case of RRIRRRPPRLPRPRPRPEIFPRP, the “shrunken log2 fold change” value was 0.215.

With RRIRCRPPRLPRPRPRPRVPPRP, the “shrunken log2 fold change” value is -0.0115.

As for RRIRDRPPRLPRPRPRPRLPPRP, the “shrunken log2 fold change” value was determined as 0.4.

Turning to RRIRNRPPRLPRPRPRPESFPRP, the “shrunken log2 fold change” value is -0.0337.

RRIRSRPPRLPRPRPRPGCGPRP: the “shrunken log2 fold change” value was determined as 0.62.

For RRIRSRPPRLPRPRPRPIRAPRP, the “shrunken log2 fold change” value amounted to 0.106.

With RRIRTRPPRLPRPRPRPQGPPRP, the “shrunken log2 fold change” value amounted to 0.0175.

RRIRNRPPRLPRPRPRPYCLPRP: the “shrunken log2 fold change” value is -0.228.

Regarding RRIRERPPRLPRPRPRPYPPPRP, the “shrunken log2 fold change” value is -0.942.

Take RRIRNRPPRLPRPRPRPDPNPRP: the “shrunken log2 fold change” value is -0.488.

Take RRIRTRPPRLPRPRPRPTVSPRP: the “shrunken log2 fold change” value is 0.077.

For the sequence RRIRCRPPRLPRPRPRPPEPPRP, the “shrunken log2 fold change” value came to 0.457.

Take RRIRCRPPRLPRPRPRPGDIPRP: the “shrunken log2 fold change” value is 0.161.

For RRIRFRPPRLPRPRPRPPTSPRP, the “shrunken log2 fold change” value was 0.403.

Regarding RRIRERPPRLPRPRPRPQGPPRP, the “shrunken log2 fold change” value was found to be 0.0515.

Regarding RRIRHRPPRLPRPRPRPYMGPRP, the “shrunken log2 fold change” value is -0.201.

With RRIRVRPPRLPRPRPRPGLRPRP, the “shrunken log2 fold change” value came out at 0.663.

RRIRPRPPRLPRPRPRPWCSPRP: the “shrunken log2 fold change” value is -0.201.

For the sequence RRIRHRPPRLPRPRPRPYPSPRP, the “shrunken log2 fold change” value is -0.457.

Regarding RRIRSRPPRLPRPRPRPIHEPRP, the “shrunken log2 fold change” value was -0.00691.

As to RRIRGRPPRLPRPRPRPKIYPRP, the “shrunken log2 fold change” value worked out at 0.000217.

Take RRIRWRPPRLPRPRPRPVYAPRP: the “shrunken log2 fold change” value is 0.31.

Turning to RRIRCRPPRLPRPRPRPYPSPRP, the “shrunken log2 fold change” value was -0.0149.

Turning to RRIRIRPPRLPRPRPRPVEIPRP, the “shrunken log2 fold change” value was -0.0212.

For RRIRNRPPRLPRPRPRPNFWPRP, the “shrunken log2 fold change” value is 0.0138.

For RRIRARPPRLPRPRPRPQDHPRP, the “shrunken log2 fold change” value was -0.208.

As to RRIRGRPPRLPRPRPRPNGSPRP, the “shrunken log2 fold change” value is -0.0904.

Turning to RRIRSRPPRLPRPRPRPSIWPRP, the “shrunken log2 fold change” value was 0.266.

Consider RRIRFRPPRLPRPRPRPKNNPRP, for which the “shrunken log2 fold change” value was -0.504.

For RRIRTRPPRLPRPRPRPHLFPRP, the “shrunken log2 fold change” value was -0.111.

RRIRFRPPRLPRPRPRPKCDPRP: the “shrunken log2 fold change” value is -0.136.

With RRIRTRPPRLPRPRPRPPVDPRP, the “shrunken log2 fold change” value was determined as 0.244.

As to RRIRMRPPRLPRPRPRPMCHPRP, the “shrunken log2 fold change” value was found to be 0.0525.

Turning to RRIRCRPPRLPRPRPRPPTMPRP, the “shrunken log2 fold change” value is 0.143.

RRIRARPPRLPRPRPRPDGQPRP: the “shrunken log2 fold change” value stood at 0.0234.

In the case of RRIRMRPPRLPRPRPRPWDMPRP, the “shrunken log2 fold change” value was determined as 0.00416.

In the case of RRIRYRPPRLPRPRPRPYMKPRP, the “shrunken log2 fold change” value is -0.122.

Turning to RRIRARPPRLPRPRPRPCRRPRP, the “shrunken log2 fold change” value was -0.085.

In the case of RRIRMRPPRLPRPRPRPLYHPRP, the “shrunken log2 fold change” value is -0.0416.

As for RRIRKRPPRLPRPRPRPTDCPRP, the “shrunken log2 fold change” value was -0.0167.

On to RRIRQRPPRLPRPRPRPWRTPRP, for which the “shrunken log2 fold change” value is -0.152.

On to RRIRPRPPRLPRPRPRPGALPRP, for which the “shrunken log2 fold change” value stood at 0.243.

For RRIRTRPPRLPRPRPRPGHFPRP, the “shrunken log2 fold change” value was -0.215.

On to RRIRRRPPRLPRPRPRPVSMPRP, for which the “shrunken log2 fold change” value came to 0.22.

For RRIRSRPPRLPRPRPRPPRAPRP, the “shrunken log2 fold change” value was 0.567.

Consider RRIRQRPPRLPRPRPRPTVHPRP, for which the “shrunken log2 fold change” value was -0.367.

Take RRIRKRPPRLPRPRPRPIDEPRP: the “shrunken log2 fold change” value was -0.148.

For RRIRIRPPRLPRPRPRPIAQPRP, the “shrunken log2 fold change” value is -0.373.

Consider RRIRCRPPRLPRPRPRPYTYPRP, for which the “shrunken log2 fold change” value was -0.456.

Consider RRIRKRPPRLPRPRPRPDRGPRP, for which the “shrunken log2 fold change” value stood at 0.0561.

As to RRIRMRPPRLPRPRPRPNNEPRP, the “shrunken log2 fold change” value is -0.0748.

For RRIRIRPPRLPRPRPRPCDEPRP, the “shrunken log2 fold change” value came out at 0.0357.

For RRIRIRPPRLPRPRPRPQGWPRP, the “shrunken log2 fold change” value is -0.00188.

For the sequence RRIRDRPPRLPRPRPRPRWSPRP, the “shrunken log2 fold change” value was 0.264.

Take RRIRNRPPRLPRPRPRPSKAPRP: the “shrunken log2 fold change” value is -0.0014.

Turning to RRIRARPPRLPRPRPRPDDGPRP, the “shrunken log2 fold change” value was -0.078.

For the sequence RRIRTRPPRLPRPRPRPPELPRP, the “shrunken log2 fold change” value turned out to be 0.194.

Turning to RRIRMRPPRLPRPRPRPPNRPRP, the “shrunken log2 fold change” value is 1.08.

Consider RRIRARPPRLPRPRPRPGYRPRP, for which the “shrunken log2 fold change” value is -0.107.

With RRIRPRPPRLPRPRPRPMGHPRP, the “shrunken log2 fold change” value is -0.145.

Consider RRIRMRPPRLPRPRPRPRYCPRP, for which the “shrunken log2 fold change” value was -0.164.

Regarding RRIRDRPPRLPRPRPRPRGFPRP, the “shrunken log2 fold change” value was determined as 0.586.

Take RRIRCRPPRLPRPRPRPNQVPRP: the “shrunken log2 fold change” value is 0.017.

Take RRIRERPPRLPRPRPRPWGHPRP: the “shrunken log2 fold change” value is -0.118.

With RRIRQRPPRLPRPRPRPRHMPRP, the “shrunken log2 fold change” value was -0.316.

RRIRNRPPRLPRPRPRPLPFPRP: the “shrunken log2 fold change” value was -0.153.

As to RRIRSRPPRLPRPRPRPFVQPRP, the “shrunken log2 fold change” value was -0.496.

Take RRIRYRPPRLPRPRPRPASHPRP: the “shrunken log2 fold change” value was -1.

Turning to RRIRKRPPRLPRPRPRPKWSPRP, the “shrunken log2 fold change” value was found to be 0.506.

For RRIRYRPPRLPRPRPRPVAWPRP, the “shrunken log2 fold change” value was determined as 0.00214.

Take RRIRHRPPRLPRPRPRPSRPPRP: the “shrunken log2 fold change” value is 0.323.
